The values below come from paper PMC12646664.

This assay addresses Gα-interacting vesicle-associated protein (GIV), endogenous (human (endogenous in THP1)) (UniProt Q3V6T2).
UniProt Q3V6T2, sequence (Q3V6T2 whole entry): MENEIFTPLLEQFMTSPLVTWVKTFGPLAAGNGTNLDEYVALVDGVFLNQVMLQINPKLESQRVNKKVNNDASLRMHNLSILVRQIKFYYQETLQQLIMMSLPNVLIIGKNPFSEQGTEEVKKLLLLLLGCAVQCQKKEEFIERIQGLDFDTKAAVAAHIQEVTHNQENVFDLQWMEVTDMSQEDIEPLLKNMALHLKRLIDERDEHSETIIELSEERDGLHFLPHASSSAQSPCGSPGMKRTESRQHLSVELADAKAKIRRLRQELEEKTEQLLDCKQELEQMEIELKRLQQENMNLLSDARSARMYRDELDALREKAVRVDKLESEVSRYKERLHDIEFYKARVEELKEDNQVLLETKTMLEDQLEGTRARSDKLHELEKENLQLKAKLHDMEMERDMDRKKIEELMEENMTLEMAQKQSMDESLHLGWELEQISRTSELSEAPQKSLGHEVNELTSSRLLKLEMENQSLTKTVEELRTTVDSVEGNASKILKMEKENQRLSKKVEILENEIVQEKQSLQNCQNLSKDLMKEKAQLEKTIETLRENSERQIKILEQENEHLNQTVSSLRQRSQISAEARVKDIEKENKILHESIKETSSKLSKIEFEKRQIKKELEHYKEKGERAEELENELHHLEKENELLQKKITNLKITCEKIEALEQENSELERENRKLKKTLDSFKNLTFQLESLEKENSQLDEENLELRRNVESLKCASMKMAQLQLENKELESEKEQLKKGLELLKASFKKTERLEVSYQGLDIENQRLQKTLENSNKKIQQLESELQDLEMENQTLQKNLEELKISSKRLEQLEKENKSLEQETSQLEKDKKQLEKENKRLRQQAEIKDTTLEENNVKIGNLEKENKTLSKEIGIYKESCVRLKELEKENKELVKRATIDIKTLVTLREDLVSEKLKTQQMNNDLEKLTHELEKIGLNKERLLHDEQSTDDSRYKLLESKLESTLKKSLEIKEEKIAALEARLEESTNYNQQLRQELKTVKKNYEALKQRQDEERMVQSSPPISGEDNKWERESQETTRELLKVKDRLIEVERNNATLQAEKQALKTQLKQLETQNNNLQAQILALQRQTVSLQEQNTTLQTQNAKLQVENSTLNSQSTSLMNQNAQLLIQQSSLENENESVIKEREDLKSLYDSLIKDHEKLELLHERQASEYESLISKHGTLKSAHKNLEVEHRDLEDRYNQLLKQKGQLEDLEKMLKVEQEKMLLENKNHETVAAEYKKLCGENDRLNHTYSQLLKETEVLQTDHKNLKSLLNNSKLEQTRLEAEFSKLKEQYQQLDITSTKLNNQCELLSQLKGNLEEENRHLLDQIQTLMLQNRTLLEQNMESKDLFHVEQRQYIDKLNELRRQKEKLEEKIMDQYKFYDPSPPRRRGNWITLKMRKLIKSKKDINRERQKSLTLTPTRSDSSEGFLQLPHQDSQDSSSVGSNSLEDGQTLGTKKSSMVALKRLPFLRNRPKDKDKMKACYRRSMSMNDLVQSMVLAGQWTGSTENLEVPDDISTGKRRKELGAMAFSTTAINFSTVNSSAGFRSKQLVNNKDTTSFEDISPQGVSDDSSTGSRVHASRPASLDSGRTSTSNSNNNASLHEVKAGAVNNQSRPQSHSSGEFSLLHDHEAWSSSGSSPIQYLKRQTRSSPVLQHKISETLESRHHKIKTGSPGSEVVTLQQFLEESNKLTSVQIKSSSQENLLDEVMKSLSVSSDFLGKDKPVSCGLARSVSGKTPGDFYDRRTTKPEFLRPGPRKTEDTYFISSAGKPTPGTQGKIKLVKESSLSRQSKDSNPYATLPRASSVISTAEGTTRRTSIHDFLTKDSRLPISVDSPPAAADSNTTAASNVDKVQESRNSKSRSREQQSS

On to “HA-NOD2 1007fs (from UniProt Q9HC29 1-1040) (natural protein)”, for which the suppression by MDP pretreatment (10 μg/mL) of LPS (100 ng/mL)-induced NF-κB activation, luciferase reporter assay in HeLa cells with NOD2-1007fs was 20 % protection. “HA-NOD2 (wild type) (from UniProt Q9HC29 1-1040) (natural protein)”: the suppression by MDP pretreatment (10 μg/mL) of LPS (100 ng/mL)-induced NF-κB activation, luciferase reporter assay in HeLa cells with NOD2-WT stood at 65 % protection. As for “HA-NOD2 G908R (from UniProt Q9HC29 1-1040) (natural protein)”, the suppression by MDP pretreatment (10 μg/mL) of LPS (100 ng/mL)-induced NF-κB activation, luciferase reporter assay in HeLa cells with NOD2 G908R was 7 % protection. As to “HA-NOD2 R702W (from UniProt Q9HC29 1-1040) (natural protein)”, the suppression by MDP pretreatment (10 μg/mL) of LPS (100 ng/mL)-induced NF-κB activation, luciferase reporter assay in HeLa cells with NOD2 R702W is 45 % protection.
